The source of these data is the supplement of paper PMC9732359.

± gives the uncertainty stated by the source.

The series in a line: protein stability index of a GFP-peptide fusion (yeast GPS) (PSI 1-4); higher = more stable; sorted into four equal gates, so the index is relative within each strain. The method, boiled down:
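The protein stability index of a peptide was calculated by multiplying its read frequency in each gate by that gate's number and adding the products. The peptides were tiled 17-residue stretches of yeast proteins, fused downstream of GFP on a Cherry-expressing plasmid and carried in yeast as a pooled library. Mid-log cultures in leucine-free medium were sorted into four equal gates by GFP/Cherry ratio, and each gate's plasmids were PCR-amplified and Illumina-sequenced.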

Turning to VEMAWIMGFISYHNGNL [FAS2], the protein stability index was 2.67 ± 0.14 (doa10∆), 3.2 ± 0.1 (pdr5∆), 3.29 ± 0.063 (san1∆) and 3.06 ± 0.12 (ubr1∆).

VEPVTERTKLQEHTIFT [SNU114] showed a protein stability index (doa10∆) of 2.2 ± 0.2, a protein stability index (pdr5∆) of 2.35 ± 0.074 and a protein stability index (san1∆) of 1.8 ± 0.21.

On to VEQTAEVTIEDALKVVL [RPS12], for which the protein stability index is 3.34 ± 0.079 (doa10∆), 3.36 ± 0.078 (pdr5∆), 3.19 ± 0.049 (san1∆) and 3.21 ± 0.045 (ubr1∆).

On to VETNTTVLADEFIAHRL [RPB3], for which the protein stability index (doa10∆) stood at 3.05 ± 0.058, the protein stability index (pdr5∆) was 3.18 ± 0.054, the protein stability index (san1∆) came out at 3.19 ± 0.04 and the protein stability index (ubr1∆) is 3.22 ± 0.033.

On to VEVDITLSPNVTDSSLL [GRR1], for which the protein stability index (doa10∆) came to 2.83 ± 0.074, the protein stability index (pdr5∆) was found to be 2.43 ± 0.068, the protein stability index (san1∆) amounted to 2.99 ± 0.053 and the protein stability index (ubr1∆) was 2.82 ± 0.046.

As for VFALHKYKPTPLYVMDE [SMC4], the protein stability index reads like this: (doa10∆) 2.6 ± 0.081; (pdr5∆) 2.85 ± 0.12; (san1∆) 3.09 ± 0.076; (ubr1∆) 3.07 ± 0.056.

Take VFEISENNSDSNSNNNG [SWI1]: the protein stability index is, setting by setting: (doa10∆) 2.89 ± 0.15; (pdr5∆) 3.03 ± 0.11; (san1∆) 3.15 ± 0.12; (ubr1∆) 3.28 ± 0.15.

VFERFKTKILEVAIRDV [IRR1]: the protein stability index stood at 1.77 ± 0.081 (doa10∆), 1.75 ± 0.09 (pdr5∆), 1.43 ± 0.14 (san1∆) and 1.67 ± 0.072 (ubr1∆).

With VFESLEINNLIQLPASL [ARP9], the protein stability index worked out at 1.61 ± 0.08 (doa10∆), 1.88 ± 0.05 (pdr5∆), 1.83 ± 0.077 (san1∆) and 1.6 ± 0.055 (ubr1∆).

As for VFLEFSLNFIPITASTS [YML103C/NUP188], the protein stability index (doa10∆) was 1.27 ± 0.068, the protein stability index (pdr5∆) amounted to 1.34 ± 0.049, the protein stability index (san1∆) is 1.62 ± 0.097 and the protein stability index (ubr1∆) is 1.48 ± 0.038.

On to VFLYFEDNAGVIANPKG [RPL23A], for which the protein stability index was determined as 2.43 ± 0.11 (doa10∆), 1.96 ± 0.051 (pdr5∆), 2.27 ± 0.12 (san1∆) and 1.9 ± 0.047 (ubr1∆).

VFSHAQTAVTCESCSTV [RPS27B] yielded a protein stability index (doa10∆) of 1.57 ± 0.13, a protein stability index (pdr5∆) of 2.46 ± 0.14, a protein stability index (san1∆) of 2.24 ± 0.15 and a protein stability index (ubr1∆) of 2.04 ± 0.11.

In the case of VFYAPNVKNYSTTQEIL [RPC34], the protein stability index by setting is: (doa10∆) 2.4 ± 0.1; (pdr5∆) 1.97 ± 0.071; (san1∆) 3.02 ± 0.082; (ubr1∆) 2.06 ± 0.048.

For the sequence VFYRGMTMQVAVPRDEL [FAS1], the protein stability index (doa10∆) was 1.62 ± 0.056, the protein stability index (pdr5∆) is 1.86 ± 0.066, the protein stability index (san1∆) came to 2 ± 0.072 and the protein stability index (ubr1∆) worked out at 1.97 ± 0.12.

On to VGFLVQLDLTGIFLHGK [PRP8], for which the protein stability index runs as follows: (doa10∆) 2.17 ± 0.074; (pdr5∆) 1.85 ± 0.05; (san1∆) 2.33 ± 0.058; (ubr1∆) 2.39 ± 0.067.

VGGTTSISGFKEALLGQ [ARP9]: the protein stability index is, setting by setting: (doa10∆) 2.67 ± 0.087; (pdr5∆) 2.53 ± 0.053; (san1∆) 2.51 ± 0.048; (ubr1∆) 2.81 ± 0.039.

Turning to VGRLWDQTFPINCNKET [ECM29], the protein stability index (doa10∆) was determined as 3.03 ± 0.14, the protein stability index (pdr5∆) came out at 2.87 ± 0.12, the protein stability index (san1∆) is 3.07 ± 0.11 and the protein stability index (ubr1∆) stood at 3.09 ± 0.1.

VGSENVECTISILRKSS [SNF12]: the protein stability index came out at 1.89 ± 0.042 (doa10∆), 2.23 ± 0.044 (pdr5∆), 2.43 ± 0.044 (san1∆) and 2.11 ± 0.036 (ubr1∆).

VHLSNGYKMIPGAKPLQ [FAS1]: the protein stability index (doa10∆) is 1.74 ± 0.072, the protein stability index (pdr5∆) worked out at 2.02 ± 0.076, the protein stability index (san1∆) stood at 1.8 ± 0.088 and the protein stability index (ubr1∆) amounted to 1.81 ± 0.05.

VHPRKSYKMNSSAADIT [PRP8]: the protein stability index is, setting by setting: (doa10∆) 2.77 ± 0.079; (pdr5∆) 2.88 ± 0.075; (san1∆) 2.88 ± 0.053; (ubr1∆) 2.74 ± 0.058.

With VHVIHFQHADNSSMRYG [AAR2], the protein stability index is 2.73 ± 0.081 (doa10∆), 2.7 ± 0.073 (pdr5∆), 2.32 ± 0.11 (san1∆) and 2.53 ± 0.055 (ubr1∆).

Consider VIDTLAAGYGKILGKGR [RPL28], for which the protein stability index is, setting by setting: (doa10∆) 3.09 ± 0.12; (pdr5∆) 2.63 ± 0.085; (san1∆) 3.11 ± 0.17; (ubr1∆) 3.52 ± 0.14.

Take VIEEDYDDEQNTSAQHV [IRR1]: the protein stability index came out at 3.5 ± 0.097 (doa10∆), 2.95 ± 0.12 (pdr5∆), 3.12 ± 0.08 (san1∆) and 3.52 ± 0.19 (ubr1∆).

In the case of VIFDASIKDTQNVGQGK [BRN1], the protein stability index runs as follows: (doa10∆) 2.15 ± 0.14; (pdr5∆) 2.45 ± 0.12; (san1∆) 2.61 ± 0.13; (ubr1∆) 3.01 ± 0.096.

Take VIIKGFKTYRNETIIDN [SMC3]: the protein stability index reads like this: (doa10∆) 2.58 ± 0.22; (pdr5∆) 2.63 ± 0.27; (san1∆) 2.94 ± 0.17.

Turning to VIKLAKYPDYFPEWKKS [ARP9], the protein stability index runs as follows: (doa10∆) 3 ± 0.098; (pdr5∆) 2.94 ± 0.091; (san1∆) 2.82 ± 0.064; (ubr1∆) 3.27 ± 0.13.

For VIPSYSKWFNLEKIHSI [SWI3], the protein stability index was determined as 1.69 ± 0.045 (doa10∆), 1.6 ± 0.049 (pdr5∆), 1.44 ± 0.075 (san1∆) and 1.89 ± 0.038 (ubr1∆).
